Assay results from US20120028271A1.

Tests used:
[1] = biological target: proteasome of mammalian cell and human tissue extracts (detected through Rpt1, Rpn2, Rpn1 and 20S alpha subunits and chymotryptic activity) (human); assay: GST pull-down from cell extracts, co-purified chymotryptic activity standardized to UbL-A, 14 measurements
[2] = biological target: proteasome of mammalian cell and human tissue extracts (detected through Rpt1, Rpn2, Rpn1 and 20S alpha subunits and chymotryptic activity) (human); assay: GST pull-down from cell extracts, co-purified chymotryptic activity, 5 measurements

proteasome of mammalian cell and human tissue extracts (detected through Rpt1, Rpn2, Rpn1 and 20S alpha subunits and chymotryptic activity) (human), sequence (P35998 2-433, form in doubt, chain 1 of 2): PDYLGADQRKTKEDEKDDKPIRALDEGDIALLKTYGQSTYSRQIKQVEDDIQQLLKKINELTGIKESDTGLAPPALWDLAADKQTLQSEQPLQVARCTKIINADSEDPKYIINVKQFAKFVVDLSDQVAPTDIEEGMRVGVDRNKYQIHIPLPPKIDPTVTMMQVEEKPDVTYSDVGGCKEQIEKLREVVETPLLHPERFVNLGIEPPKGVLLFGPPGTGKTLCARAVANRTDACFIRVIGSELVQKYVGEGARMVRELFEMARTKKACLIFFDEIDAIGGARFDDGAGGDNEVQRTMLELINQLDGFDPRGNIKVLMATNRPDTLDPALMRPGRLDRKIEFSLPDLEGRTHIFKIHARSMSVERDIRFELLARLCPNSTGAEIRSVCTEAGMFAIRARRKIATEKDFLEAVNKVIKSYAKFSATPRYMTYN
proteasome of mammalian cell and human tissue extracts (detected through Rpt1, Rpn2, Rpn1 and 20S alpha subunits and chymotryptic activity) (human), sequence (B8ZZH9 whole entry, form in doubt, chain 2 of 2, further chain): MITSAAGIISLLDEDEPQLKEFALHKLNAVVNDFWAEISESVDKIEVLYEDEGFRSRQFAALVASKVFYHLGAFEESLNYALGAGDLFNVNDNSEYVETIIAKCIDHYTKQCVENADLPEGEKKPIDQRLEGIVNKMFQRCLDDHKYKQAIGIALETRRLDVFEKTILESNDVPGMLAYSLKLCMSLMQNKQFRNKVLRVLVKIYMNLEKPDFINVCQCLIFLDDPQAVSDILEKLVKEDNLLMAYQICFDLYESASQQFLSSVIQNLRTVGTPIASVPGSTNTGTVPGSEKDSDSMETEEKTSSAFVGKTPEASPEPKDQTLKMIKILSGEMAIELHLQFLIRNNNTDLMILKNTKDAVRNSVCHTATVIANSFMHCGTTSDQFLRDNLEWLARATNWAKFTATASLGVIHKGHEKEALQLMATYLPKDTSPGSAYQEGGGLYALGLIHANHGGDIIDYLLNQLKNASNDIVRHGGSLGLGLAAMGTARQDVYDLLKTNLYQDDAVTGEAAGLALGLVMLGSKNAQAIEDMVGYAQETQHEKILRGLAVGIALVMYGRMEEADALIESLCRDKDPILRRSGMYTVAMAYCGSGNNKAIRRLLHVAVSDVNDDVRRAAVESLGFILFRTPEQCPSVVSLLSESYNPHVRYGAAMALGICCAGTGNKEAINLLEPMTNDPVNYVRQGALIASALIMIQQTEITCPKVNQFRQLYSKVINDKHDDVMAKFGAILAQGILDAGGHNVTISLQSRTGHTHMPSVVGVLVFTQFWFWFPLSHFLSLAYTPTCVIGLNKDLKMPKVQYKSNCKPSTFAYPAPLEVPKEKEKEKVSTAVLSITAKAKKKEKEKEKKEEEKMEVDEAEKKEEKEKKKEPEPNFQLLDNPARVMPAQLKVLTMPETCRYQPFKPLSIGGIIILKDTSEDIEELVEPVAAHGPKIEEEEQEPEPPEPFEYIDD

Row | Molecule | fold proteasome purified (chymotryptic activity) relative to UbL-A [1] [fold] | fold increase of proteasome interaction / associated chymotryptic activity relative to UbL-A^1-79 [2] [fold]
1 | GST-UbL-B (UbL domain of human hHR23B, residues 1-78) (from UniProt P54727 1-78) | 2.94 | –
2 | GST-UbL-A^1-78 (UbL domain of hHR23A ending in Val-Val-Val-Met-Val-Thr-Lys) (protein, not shown: a dimerising Fc or GST) MAVTITLKTLQQQTFKIRMEPDETVKVLKEKIEAEKGRDAFPVAGQKLIYAGKILSDDVPIRDYRIDEKNFVVVMVTK | – | 2.5
